Assay results published in US12138304.

How the values were obtained:
[1] = molecular target: soluble CD4 (sCD4) (UniProt P01730); assay: SPR, apparent affinity for sCD4
[2] = molecular target: BG505 F14 gp160 (cell surface expressed trimer) (HIV-1 (clade A BG505)); assay: flow cytometry, 293F cells expressing gp160; mean of 3 experiments ± SD
[3] = molecular target: BG505 F14/Vt8 gp160 (cell surface expressed trimer) (HIV-1 (clade A BG505)); assay: as above
[4] = molecular target: BG505 gp160 (cell surface expressed trimer) (HIV-1 (clade A BG505)); assay: as above
[5] = molecular target: BG505 Vt8 gp160 (cell surface expressed trimer) (HIV-1 (clade A BG505)); assay: as above
[6] = molecular target: BG505 DS gp160 (cell surface expressed trimer) (HIV-1 (clade A BG505)); assay: as above
[7] = molecular target: BG505 F14 gp160 (cell surface expressed trimer) (HIV-1 (clade A BG505)); assay: flow cytometry, 293F cells expressing gp160, antibody 10 ug/mL
[8] = molecular target: BG505 F14/Vt8 gp160 (cell surface expressed trimer) (HIV-1 (clade A BG505)); assay: as above
[9] = molecular target: BG505 gp160 (cell surface expressed trimer) (HIV-1 (clade A BG505)); assay: as above
[10] = molecular target: BG505 Vt8 gp160 (cell surface expressed trimer) (HIV-1 (clade A BG505)); assay: as above
[11] = molecular target: BG505 DS gp160 (cell surface expressed trimer) (HIV-1 (clade A BG505)); assay: as above
[12] = molecular target: BG505 SOSIP (HIV-1 (clade A BG505)); assay: BLI dose response, one site specific binding fit to the average of two experiments
[13] = molecular target: BG505 F14/Vt8 SOSIP (HIV-1 (clade A BG505)); assay: as above
[14] = molecular target: BG505 F14 SOSIP (HIV-1 (clade A BG505)); assay: as above
[15] = molecular target: BG505 Vt8 SOSIP (HIV-1 (clade A BG505)); assay: as above
[16] = molecular target: BG505 F14/Vt8 SOSIP (HIV-1 (clade A BG505)); assay: BLI dose response, antibody captured on anti-human Fc tips, SOSIP in solution
[17] = molecular target: BG505 Vt8 SOSIP (HIV-1 (clade A BG505)); assay: as above

BG505 SOSIP
Kd [1]: 67.9 nM

CH01 (antibody)
percentage of cells binding [2]: 37.7% | percentage of cells binding [3]: 22.1% | percentage of cells binding [4]: 32.8% | percentage of cells binding [5]: 30.2% | percentage of cells binding [6]: 20.8%

N6 (antibody)
percentage of cells binding [2]: 53.9% | percentage of cells binding [3]: 40.3% | percentage of cells binding [4]: 45.3% | percentage of cells binding [5]: 44.4% | percentage of cells binding [6]: 41% | MFI [7]: 568 MFI | MFI [8]: 341 MFI | MFI [9]: 457 MFI | MFI [10]: 378 MFI | MFI [11]: 338 MFI

PG9 (antibody)
Kd [12]: 444 nM | Kd [13]: 337 nM | Kd [14]: 45.9 nM | Kd [15]: 335 nM

PGT121 (antibody)
Kd [12]: 222 nM | Kd [13]: 262 nM | Kd [14]: 219 nM | Kd [15]: 260 nM

PGT125 (antibody)
percentage of cells binding [2]: 54.7% | percentage of cells binding [3]: 37.9% | percentage of cells binding [4]: 47.1% | percentage of cells binding [5]: 43.2% | percentage of cells binding [6]: 38.2%

PGT145 (antibody)
Kd [12]: 64.2 nM | Kd [13]: 80.2 nM | Kd [14]: 76.5 nM | Kd [15]: 68 nM | percentage of cells binding [2]: 48.8% | percentage of cells binding [3]: 34.8% | percentage of cells binding [4]: 46% | percentage of cells binding [5]: 38.2% | percentage of cells binding [6]: 35.4%

PGT151 (antibody)
Kd [12]: 26.9 nM | Kd [13]: 24 nM | Kd [14]: 23.3 nM | Kd [15]: 24 nM

VRC01 (antibody)
Kd [12]: 612 nM | Kd [13]: 314 nM | Kd [14]: 566 nM | Kd [15]: 269 nM | fold enhancement of affinity relative to BG505 SOSIP [16]: 2 fold | fold enhancement of affinity relative to BG505 SOSIP [17]: 2 fold

VRC26 (antibody)
Kd [12]: 67.6 nM | Kd [13]: 50.6 nM | Kd [14]: 50.2 nM | Kd [15]: 60.4 nM
